B1: anti-BAFFG3 (VHH)
VHH: HVQLVDSGGGLVAGGSLRLSCAASGRTFSMSAVAWFRQAPGKEREFVAAISKSSISTYYADSVKGRFTISRDNARNTVNLQMNSLKPEDTAVYYCNSALNGRLPGRHWGQGTQVTVSS
notes: Soluble sdAb of about 15 kDa from an immune alpaca library; also called clone G3; anti-BAFFG3 sdAb; source: E. coli TG1, periplasm, vector pSJF2, purified (Ni-NTA)
B2: baff41 (VHH)
VHH: HVQLVDSGGGLVQPGGSLRLSCTASGRTFRDYAMGWFRQAPGKEREFVAAIIGRGASTQYADFVKGRFTISRDNAKNTVYLQMNSLRPEDTAVYYCHAYDPRRNGDYWGQGTQVTVSS
B3: bafff4 (VHH)
VHH: HVQLVDSGGGLVQAGGSLRLSCTVSGRTSRYAMAWFRQAPGKGREFVAGVNRSGGRPNYSNSVKGRFTISRDNAKNTVYLQMNGLKPEDTAVYYCAAEDRISQSYEYWGQGTQVTVSS
B4: baffh1 (VHH)
VHH: HVQLVDSGGGSVQTGDSLTLSCVQSGRTFRSYAMAWYRQAPGKERELVARISSGYSTNYLDSVKGRFTISRDNDKNTFYLQMNSLRPEDTAVYYCNSALNGRLPGRHWGQGTQVTVSS
B5: anti-BAFF52 (VHH)
VHH: HVQLVDSGGGLVQAGGSLRLSCAASGRSFKNYHMGWFRQAPGKEREFVAAINGRGSRTKYADSVKGRFTISRDNAERTVRLEMNSLKPEDTAVYYCAAGGPEFYRGRLEDYAYWGPGTQVTVSS
notes: Soluble sdAb of about 15 kDa from an immune alpaca library; also called clone 52; anti-BAFF52 sdAb; source: E. coli TG1, periplasm, vector pSJF2, purified (Ni-NTA)
B6: baffc6 (VHH)
VHH: HVQLVDSGGGLVQAGGSLRLSCAAPRNTFSRYAMAWYRQAPGKRRESVASISSGGISHYTDSVKGRFTISRDNAKNTVYLQMNSLKPEDSAVYYCAASREWGLLRHRPGYWGQGTQVTVSS
B7: baffb2 (VHH)
VHH: HVQLVDSGGGLVQAGGSLRLSCAASGRSFRRYAMAWFRQTPGKEREFVAAISRSGGSTSYADSVKGRFTISRDNVKNTVYLQMNSLKPEDTAIYYCAADRWGSPTDLRLPRELDYWGQGTHVTVSS
B8: baffb11 (VHH)
VHH: HVQLVDSGGGLVQAGGSLRLSCAASGRTFSSYAMGWFRQAPGKEREFVAAISWSGGRTYYADSVKGRFTISRNNAKNTVYLQMNNLKPEDAAVYYCAARSRASLSGTPLSSPSYYRYWGQGTQVTVSS
B9: anti-BAFF64 (VHH)
VHH: QVQLVDSGGGLVQAGGSLRLSCVASGALISRRGMGWYRQAPGRQRELVAGISSDGTTNYAQSVEGRFTISRDNAKRSVYLQMNSLKPEDTAVYYCHARTRWKSYWGQGTQVTVSS
notes: Soluble sdAb of about 15 kDa from an immune alpaca library; also called clone 64; anti-BAFF64 sdAb; source: E. coli TG1, periplasm, vector pSJF2, purified (Ni-NTA)

Experiments:
[1] = biological target: T1, B cell-activating factor (BAFF) (UniProt Q9Y275, biotin (NHS-LC-Biotin, 3:1 molar ratio of biotin to protein) in the BLI assay; not biotinylated when coated on ELISA plates); assay: BLI; Octet RED; biotinylated BAFF (20 ug/mL) loaded on streptavidin biosensors; sdAbs 1.25-20 uM as analyte; PBST (PBS pH 7.4, 0.1% BSA, 0.02% Tween-20); room temperature; association 300 s, dissociation 1500 s; global 1:1 fit; 'relative affinity'; details: both partners purified
T1 construct: probably a soluble recombinant human BAFF (surmise); The same antigen was used for immunisation, panning, BLI, ELISA and the cell assay; also called B lymphocyte stimulator; BLyS

[2] = biological target: T1, B cell-activating factor (BAFF); assay: ELISA; competition ELISA; BAFF (10 ug/mL) coated; sdAb (0-500 ug/mL) mixed with BCMA (50 ug/mL), 2 h at 37 C; bound BCMA detected with HRP goat anti-human IgG; details: both partners purified
[3] = biological target: T1, B cell-activating factor (BAFF)
Target sequence in this assay (Q9Y275 134-285): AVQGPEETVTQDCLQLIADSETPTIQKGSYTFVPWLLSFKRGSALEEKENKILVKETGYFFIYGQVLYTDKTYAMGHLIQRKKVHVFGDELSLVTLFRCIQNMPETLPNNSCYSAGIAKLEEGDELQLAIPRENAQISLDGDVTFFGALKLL

[4] = biological target: T1, B cell-activating factor (BAFF); assay: cell-based or functional assay
[5] = biological target: T1, B cell-activating factor (BAFF); assay: ELISA; competition ELISA; BAFF (10 ug/mL) coated; sdAb (0-100 ug/mL) mixed with TACI (10 ug/mL), 2 h at 37 C; bound TACI detected with HRP goat anti-human IgG; details: both partners purified

Binder	Kd [1] [nM]	koff [1] [s⁻¹]	kon [1] [M⁻¹ s⁻¹]	binding result [3]	other results
B1	823	0.00239	2900	–	inhibition ratio of BCMA binding to BAFF at 500 ug/mL sdAb [2]: 33%
B2	–	–	–	binds	–
B3	–	–	–	binds	–
B4	–	–	–	binds	–
B5	3180	0.0182	5710	–	–
B6	–	–	–	binds	–
B7	–	–	–	binds	–
B8	–	–	–	binds	–
B9	319	0.000729	2290	–	inhibitory ratio of BAFF-induced (750 ng/mL) Raji cell proliferation, CCK-8 assay, sdAb 0-100 ug/mL; value at 100 ug/mL [4]: 55%; inhibition ratio of TACI binding to BAFF at 100 ug/mL sdAb [5]: 31%

From publication PMC4100105, “A Novel VHH Antibody Targeting the B Cell-Activating Factor for B-Cell Lymphoma” (International Journal of Molecular Sciences, 2014)
